The record followed here is patent publication US20160068860A1, “TRANSGENIC PLANTS” (CONSEJO SUPERIOR DE INVESTIGACIONES CIENTIFICAS (CSIC), priority 2013, published 2016).

Test [1] has as its system Arabidopsis thaliana plants. The test is described as follows: Water-loss assays of OE lines. It counts as in vivo. Conditions: for water loss under drought stress: greenhouse, leaves detached after 11-d without irrigation. Here is the method:
(§1) 2-3 weeks-old seedlings grown in MS plates were used for water-loss assays. Four seedlings per genotype with similar growth, three independent experiments, were submitted to the drying atmosphere of a flow laminar hood. Kinetic analysis of waterloss was performed and represented as the percentage of initial fresh weight loss at each scored time point. Stomatal aperture measurements were done in leaves of 5-week-old plants grown under greenhouse conditions using whole leaf imaging (Chitrakar and Melotto, 2010). Staining of whole leaves with propidium iodide was conducted and the aperture of 30-40 stomata (ratio width/length, two independent experiments) was measured using a Leica TCS-SL confocal microscope.
(§2) Plants grown under greenhouse conditions (10 individuals per experiment, three independent experiments) were grown under normal watering conditions for 15 days and then subjected to drought stress by stopping irrigation during 20 days. Next, watering was resumed and survival rate was calculated after 3 days by counting the percentage of plants that had more than four green leaves. Photographs were taken at the start of the experiment (day 0), after 16 and 19 days of drought, and 3 days after rewatering. Shoot-growth and water-loss were measured as follows. Quantification of shoot-growth was performed at 2, 5, 7 and 9 d after stopping irrigation (day 0) by measuring the maximum rosette radius of the plants. Water-loss measurements were done in two leaves from each plant that were detached 11 d after the start of the experiment, next weighted, incubated in de-mineralized water for 3 h and weighed again. The difference in weight was considered as water loss and related to the initial fresh weight (μl H2O/g FW).

The subject of test [2] is Arabidopsis thaliana plants. Put plainly: Seedling establishment and early seedling growth of OE lines on ABA. To be noted: for ABA-mediated inhibition of seedling establishment: 0.25 or 0.5 μM ABA; for ABA-mediated inhibition of shoot growth (early seedling growth): 0.25-0.5 μM ABA. It counts as in vivo. From the text:
PYL4 or PYL4 mutants were cloned into pCR8/GW/TOPO entry vector (Invitrogen) and recombined by LR reaction into the gateway compatible ALLIGATOR2 vector (Bensmihen et al., 2004). This construct drives expression of PYL4 under control of the 35S CaMV promoter and introduces a triple HA epitope at the N-terminus of the protein. Selection of transgenic lines is based on the visualization of GFP in seeds, whose expression is driven by the specific seed promoter At2S3. The ALLIGATOR2-35S:3HA-PYL4 or mutant constructs were transferred to Agrobacterium tumefaciens C58C1 (pGV2260) (Deblaere et al., 1985) by electroporation and used to transform Columbia wild type plants by the floral dip method. T1 transgenic seeds were selected based on GFP visualization and sowed in soil to obtain the T2 generation. At least three independent transgenic lines were generated for each construct. Homozygous T3 progeny was used for further studies and expression of HA-tagged protein in 21-d-old seedlings was verified by immunoblot analysis using anti-HA-peroxidase (Roche).
After surface sterilization of the seeds, stratification was conducted in the dark at 4° C. for 3 d. Approximately 100 seeds of each genotype were sowed on MS plates supplemented with different ABA concentrations per experiment. To score seed germination, radical emergence was analyzed at 72 h after sowing. Seedling establishment was scored as the percentage of seeds that developed green expanded cotyledons and the first pair of true leaves at 7-d.

Test [3] deals with Arabidopsis thaliana plants. The test is described as follows: Drought stress under greenhouse conditions. It counts as in vivo. Conditions: for survival after drought stress: OE lines, watering resumed at 19-d, scored at 23-d. Here is the method:
as §2

The subject of test [4] is Arabidopsis thaliana plants. Put plainly: Whole-rosette stomatal conductance and transpiration measurements. It counts as in vivo. Conditions: basal conditions; for stomatal conductance (Gst) and transpiration versus non-transformed Col: OE plants. As for the experimental part: The Arabidopsis whole-rosette gas exchange measurement device, plant growth practice and custom written program to calculate transpiration and Gst for water vapour have been described previously (Kollist et al. 2007; Vahisalu et al., 2008). For gas-exchange experiments, 25-28-d-old plants (rosette area 6-18 cm2) were used. Until measurements, plants were grown in growth chambers (AR-66LX and AR-22L, Percival Scientific, IA, USA) at 12/12 photoperiod, 23/18° C. temperature, air relative humidity of 70-80% and 150 μmol m-2 s-1 light. During gas exchange measurements, temperature, air relatively humidity, photoperiod and light in the cuvettes were kept as similar as possible to the
values in growth chambers. Photographs of plants were taken before and after the experiment and rosette leaf area was calculated using the NIH software ImageJ 1.37v. Leaf area values for the intermediary experimental period were calculated using linear regression between starting and final leaf area.

The test system of test [5] is PP2CA. The test is described as follows: Yeast two hybrid (Y2H) growth assay with PP2CA. Conditions: absence of ABA; growth on medium lacking His and Ade. It is filed as cell-based, Arabidopsis. Here is the method: We conducted error-prone PCR mutagenesis by amplification of the PYL4 open reading frame using the following primers: FPYL4Ncol, 5″-GCAGCAGCCATGGTTGCCG TTCACCGTCCTTCT and RPYL4EcoRIstop: […] TCT TCTTCTT, and the following conditions: 2 mM dGTP, dCTP and dTTP, 0.5 mM dATP, 12 mM MgCl2 and Taq polymerase. The PCR product was Ncol-EcoRI doubly digested, cloned into the pGBKT7 vector and DH10B cells were transformed by electroporation. Thus, we generated an allele library in E. coli of approximately 10,000 PYL4 mutant clones. […] The library was shuttled to yeast AH109 by co-transformation with pGAD7-PP2CA. Yeast transformants were pooled and clones able to grow in the absence of exogenous ABA in medium lacking histidine and adenine were selected. Yeast plasmids were extracted, sequenced and retransformed in yeast cells to recapitulate the phenotype. Protocols for yeast two hybrid assays were similar to those described previously (Saez et al., 2008).

In test [6] the test system is Arabidopsis thaliana plants. Put plainly: Stomatal aperture by whole leaf imaging. It is filed as in vivo. To be noted: OE plants; steady-state conditions. As for the experimental part:
as §1

Test [7] concerns Arabidopsis thaliana plants. The test is described as follows: Dehydration treatment of seedlings in laminar flow hood. It counts as in vivo. Conditions: OE plants; 15-d-old seedlings, 12 h of dehydration, scored 3-d afterwards. Here is the method: 2-weeks-old seedlings grown in MS plates were used for these experiments. Twenty seedlings per genotype (two independent experiments) were submitted to the drying atmosphere of a flow laminar hood for 12 hours (25° C.±1° C., 25%±2% relative humidity), then rehydrated with 25 ml of water. Survival percentage was scored 3 days after rehydration by counting the percentage of plants that had at least four green leaves.

Substitutions are numbered along the chain they refer to. Names may count otherwise.

In the case of “PYL4: AtPYL4 wild type ABA receptor polypeptide (SEQ ID NO:3, At2g38310) [reference compound]”, in test [1], the “water loss under drought stress” value is “reduced water loss compared to non-transformed plants”. The “ABA-mediated inhibition of seedling establishment” value in test [2] was “enhanced ABA-mediated inhibition of seedling establishment compared to non-transformed plants”. Also, the “survival after drought stress” value in test [3] is “around 30%”. Moreover, the “stomatal conductance (Gst) and transpiration versus non-transformed Col” value in test [4] is “lower Gst and transpiration values than non-transformed Col plants”. The “interaction with PP2CA in Y2H assay” value in test [5] is given as “ABA-dependent manner”. For the same molecule, in test [6], the stomatal aperture entry is on record as “more closed than those of non-transformed Col plants”.

B1: PYL4H82R V97A (AtPYL H82 and V97A) (receptor)
chain: MLAVHRPSSAVSDGDSVQIPMMIASFQKRFPSLSRDSTAARFHTHEVGPNQCCSAVIQEISAPISTVWSVVRRFDNPQAYKRFLKSCSVIGGDGDNAGSLRQVHVVSGLPAASSTERLDILDDERHVISFSVVGGDHRLSNYRSVTTLHPSPISGTVVVESYVVDVPPGNTKEETCDFVDVIVRCNLQSLAKIAENTAAESKKKMSL
notes: also called PYL4H82R (found combined with V97A)
In the case of B1, in test [2], the “ABA-mediated inhibition of shoot growth (early seedling growth)” value is “higher sensitivity to ABA-mediated inhibition of shoot growth than PYL4 OE plants” and the “ABA-mediated inhibition of seedling establishment” value is “higher sensitivity to ABA-mediated inhibition of seedling establishment than PYL4 OE plants”. In addition, the “interaction with PP2CA in Y2H assay” value in test [5] is on record as “ABA-independent interaction with PP2CA”. Further, the “survival after dehydration followed by rehydration” value in test [7] is about 25%.

B2: PYL4A194T: AtPYL4 ABA receptor mutant polypeptide with A194T substitution (SEQ ID NO. 60; nucleic acid SEQ ID NO: 55); also over-expressed in plants (protein, listed as Arabidopsis thaliana)
chain: B1 chain with R82H, A97V, A194T
For the molecule B2, in test [1] (15-d-old seedlings, drying atmosphere of a laminar flow hood), the water-loss kinetics result is recorded as “lost less water than non-transformed or PYL4 OE lines”. Besides, the “water loss under drought stress” value in test [1] was “reduced water loss compared to non-transformed Col and PYL4 OE plants”. Also, in test [2], the “ABA-mediated inhibition of shoot growth (early seedling growth)” value is “higher sensitivity to ABA-mediated inhibition of shoot growth than PYL4 OE plants” and the “ABA-mediated inhibition of seedling establishment” value is “higher sensitivity to ABA-mediated inhibition of seedling establishment than PYL4 OE plants”. Further, in test [3], the “survival after drought stress” value was 60-70%. Further, the “plant growth (rosette radius) during drought” value in test [3] (OE plants, subsequent 5-d after irrigation stopped) was “plant growth was reduced in non-transformed Col and PYL4 OE plants compared to PYL4A194T OE plants”. Besides, in test [4], the “stomatal conductance (Gst) and transpiration versus non-transformed Col” value was “lower Gst and transpiration values than non-transformed Col plants”; the “stomatal conductance (Gst) versus PYL4 OE plants” value is recorded as “lower Gst values than PYL4 OE plants”. For the same molecule, the “interaction with PP2CA in Y2H assay” value in test [5] was “enhanced the interaction of PYL4 and PP2CA in the absence of ABA”. The “survival after dehydration followed by rehydration” value in test [7] is reported as “approximately 40%”. For the same molecule, in test [6], the stomatal aperture result is on record as “more closed than those of non-transformed Col plants”.
